Where two headings read alike, the source gives them in different places.
B1: SRGAP2A F-BARx-RhoGAP-SH3 (residues 1-799) (domain or fragment)
chain: not shown

Columns and labels:
[1] = biological target: the molecule itself; assay: SEC
[2] = biological target: SRGAP2A RhoGAP-SH3 domains (isolated) (human, UniProt O75044 485-1071); assay: MST
[3] = biological target: the molecule itself; assay: SEC; remark: listed apart in the source
[4] = biological target: B1; assay: SEC-MALS

## B1
[1]
  stoichiometry N: 2

B2: SRGAP2A F-BARx (extended F-BAR, residues 1-484) (domain or fragment, human, UniProt O75044 1-484, looked up)
chain: MTSPAKFKKDKEIIAEYDTQVKEIRAQLTEQMKCLDQQCELRVQLLQDLQDFFRKKAEIEMDYSRNLEKLAERFLAKTRSTKDQQFKKDQNVLSPVNCWNLLLNQVKRESRDHTTLSDIYLNNIIPRFVQVSEDSGRLFKKSKEVGQQLQDDLMKVLNELYSVMKTYHMYNADSISAQSKLKEAEKQEEKQIGKSVKQEDRQTPRSPDSTANVRIEEKHVRRSSVKKIEKMKEKRQAKYTENKLKAIKARNEYLLALEATNASVFKYYIHDLSDLIDQCCDLGYHASLNRALRTFLSAELNLEQSKHEGLDAIENAVENLDATSDKQRLMEMYNNVFCPPMKFEFQPHMGDMASQLCAQQPVQSELVQRCQQLQSRLSTLKIENEEVKKTMEATLQTIQDIVTVEDFDVSDCFQYSNSMESVKSTVSETFMSKPSIAKRRANQQETEQFYFTKMKEYLEGRNLITKLQAKHDLLQKTLGESQRT
modifications: fluorescently labeled (in the MST only)
[2]
  Kd: 3.5 µM

B3: SRGAP2C F-BAR portion (F-BARC, SRGAP2C residues 1-355) (domain or fragment, human, UniProt P0DJJ0 1-355, looked up)
chain: MTSPAKFKKDKEIIAEYDTQVKEIRAQLTEQMKCLDQQCELRVQLLQDLQDFFRKKAEIEMDYSRNLEKLAEHFLAKTRSTKDQQFKKDQNVLSPVNCWNLLLNQVKWESRDHTTLSDIYLNNIIPRFVQVSEDSGRLFKKSKEVGQQLQDDLMKVLNELYSVMKTYHMYNADSISAQSKLKEAEKQEEKQIGKSVKQEDRQTPCSPDSTANVRIEEKHVRRSSVKKIEKMKEKHQAKYTENKLKAIKAQNEYLLALEATNASVFKYYIHDLSDLIDQCCDLGYHASLNRALRTFLSAELNLEQSKHEGLDAIENAVENLDATSDKQRLMEMYNNVFCPPMKFEFQPHMGDMASQ
[3]
  stoichiometry N: 2
[4]
  binding result: binds

B4: SRGAP2A F-BAR domain (F-BARA, residues 1-355) (domain or fragment, human, UniProt O75044 1-355, looked up)
chain: MTSPAKFKKDKEIIAEYDTQVKEIRAQLTEQMKCLDQQCELRVQLLQDLQDFFRKKAEIEMDYSRNLEKLAERFLAKTRSTKDQQFKKDQNVLSPVNCWNLLLNQVKRESRDHTTLSDIYLNNIIPRFVQVSEDSGRLFKKSKEVGQQLQDDLMKVLNELYSVMKTYHMYNADSISAQSKLKEAEKQEEKQIGKSVKQEDRQTPRSPDSTANVRIEEKHVRRSSVKKIEKMKEKRQAKYTENKLKAIKARNEYLLALEATNASVFKYYIHDLSDLIDQCCDLGYHASLNRALRTFLSAELNLEQSKHEGLDAIENAVENLDATSDKQRLMEMYNNVFCPPMKFEFQPHMGDMASQ
modifications: fluorescently labeled (in the MST only)
[3]
  stoichiometry N: 2
[2]
  Kd: 3 µM

— publication PMC5435084 (Molecular Biology and Evolution, 2017)
